{"source": "patent US20070009511A1", "about": "(Bristol-Myers Squibb, published 2007)", "binders": {"B1": {"name": "L104EA29YXC120S (receptor)", "chain": "MHVAQPAVVLASSRGIASFVCEYASPGKYTEVRVTVLRQADSQVTEVCAATYMMGNELTFLDDSICTGTSSGNQVNLTIQGLRAMDTGLYICKVELMYPPPYYEGIGNGTQIYVIDPEPSPDSD", "notes": "also called single chain L104EA29Y extracellular domain"}}, "target": "T1, CD86Ig (UniProt P42081 24-247)", "T1 construct": "extracellular domain; Immobilized on BIAcore chips; also called soluble CD86Ig; B7-2", "T1 sequence (P42081 24-247)": "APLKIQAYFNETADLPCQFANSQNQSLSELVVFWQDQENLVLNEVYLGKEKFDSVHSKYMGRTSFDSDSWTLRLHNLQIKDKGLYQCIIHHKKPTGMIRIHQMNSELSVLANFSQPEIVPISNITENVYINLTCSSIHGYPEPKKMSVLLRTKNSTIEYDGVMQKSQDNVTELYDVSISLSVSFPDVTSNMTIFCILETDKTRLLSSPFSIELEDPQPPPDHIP", "test": "SPR, CD86Ig immobilized, monomer against dimer", "data": [{"binder": "B1", "values": [{"measurement": "fold lower binding affinity than the respective dimer (L104EA29YIg)", "value": "35 to 80", "unit": "fold"}]}]}
